Data as given in patent publication US8178319B2, “Peptides and uses thereof” (priority 2008, dated 2012).

B1: rAAL: Recombinant full length His-tagged Aleuria aurantia lectin (protein, UniProt P18891 2-313, looked up)
Fucose-specific lectin: PTEFLYTSKIAAISWAATGGRQQRVYFQDLNGKIREAQRGGDNPWTGGSSQNVIGEAKLFSPLAAVTWKSAQGIQIRVYCVNKDNILSEFVYDGSKWITGQLGSVGVKVGSNSKLAALQWGGSESAPPNIRVYYQKSNGSGSSIHEYVWSGKWTAGASFGSTVPGTGIGATAIGPGRLRIYYQATDNKIREHCWDSNSWYVGGFSASASAGVSIAAISWGSTPNIRVYWQKGREELYEAAYGGSWNTPGQIKDASRPTPSLPDTFIAANSSGNIDISVFFQASGVSLQQWQWISGKGWSIGAVVPTGTPAGW
modifications: His-tag
notes: Recombinant full length His-tagged Aleuria aurantia lectin
B2: Mono-F2: Recombinant His-tagged monovalent fucose-binding fragment of Aleuria aurantia lectin, site 2 (AAL aa 51-161) (protein, listed as Aleuria aurantia)
chain: SQNVIGEAKLFSPLAAVTWKSAQGIQIRVYCVNKDNILSEFVYDGSKWITGQLGSVGVKVGSNSKLAALQWGGSESAPPNIRVYYQKSNGSGSSIHEYVWSGKWTAGASFG
modifications: His tag
B3: Mono-F2-T: Mono-F2 pre-treated with thrombin protease to remove the His-tag (protein, listed as Aleuria aurantia)
chain: B2 chain
modifications: His-tag removed by thrombin

Experiments:
[1] = system: wheat-germ agglutinin isolated B-domain (WGA-B); conditions: monovalent form of wheat-germ agglutinin (B-domain); Espinosa et al, 2000; cited from earlier work
[2] = ELISA binding of biotinylated lectin to oligosaccharide glycoconjugates; conditions: for ELISA binding to non-fucosylated oligosaccharide LNT: LNT-BSA coated wells, absorbance 405 nm; for ELISA binding specificity towards fucosylated oligosaccharides: LNnF I, LNF II, LNF III, B-tri, SLex, SLea conjugates, absorbance 405 nm (FIG. 7)
Protocol: Purified Mono-F2 (SEQ ID NO: 4) and full length rAAL were biotinylated using IMMUNOPROBE™ Biotinylation Kit (Sigma-Aldrich, Stockholm, Sweden) according to the manufacturer's instruction. The biotin/protein ratio was determined to 1.1 biotin moieties per protein molecule for both Mono-F2 (SEQ ID NO: 4) and rAAL. Microtiter plates (Nunc MaxiSorp™ eBioscience, San Diego, CA) were coated with 0.2 μg of LNnF I-BSA, LNF II-BSA, LNF III-HSA, LNT-BSA; 0.1 μg of B-tri-HSA, SLex-HSA and SLea-HSA in 100 μL coating buffer (15 mM Na2CO3, 35 mM NaHCO3, 0.02% NaN3, pH 9.6). Then 100 μL of biotinylated Mono-F2 (SEQ ID NO: 4) or full length rAAL was added to the wells. After addition of ExtrAvidin (E-2632 Sigma-Aldrich, Stockholm, Sweden) and phosphatase substrate (Sigma 104®, Sigma-Aldrich, Stockholm, Sweden) the amount of Mono-F2 (SEQ ID NO: 4) or full length AAL binding to each well were measured at 405 nm using a VERSAmax microplate reader (Molecular Devices Corporation, Sunnyvale, CA).
To analyze whether the His-tag on Mono-F2 (SEQ ID NO: 4) affected the fucose binding the ELISA analysis was also performed using Mono-F2 (SEQ ID NO: 4) pre-treated with thrombin protease to remove the His-tag. Biotin labelled Mono-F2 (SEQ ID NO: 4) (50μg) in PBS was incubated with 2 units of thrombin protease (Amersham Biosciences, Uppsala, Sweden) for 2 hours at room temperature.

[3] = system: human type 0 erythrocytes; assay: Hemagglutination activity with human type 0 erythrocytes; format: cell-based; conditions: 2% human type 0 erythrocytes in PBS, room temperature, 1 h; for minimum lectin concentration that gave hemagglutination (molar): approximate conversion of μg/ml
Protocol: The hemagglutination activity of full length rAAL and Mono-F2 (SEQ ID NO: 4) was determined by serial dilutions of the lectins in PBS and mixing with an equal volume (50μL) of 2% human type 0erythrocytes suspended in PBS. After incubation at room temperature for 1h the minimum lectin concentration that gave a positive reaction was determined.

[4] = Oligosaccharide affinity chromatography on silica column with immobilized Mono-F2; format: binding, human
Protocol: FIG. 5 - chromatograms of some fucosylated human milk oligosaccharides (LNnF I, LNF II and LNF III) and a non-fucosylated control (LNT) on a silica column with immobilized Mono-F2 (SEQ ID NO: 4).
Mono-F2 (SEQ ID NO: 4) was immobilized on silica particles (5μM, 300 Å) and packed in an affinity column (50×0.32 mm) and chromatography of a number of oligosaccharides were examined. […] Elutions of oligosaccharides were detected by UV absorbance at 210 nm.

[5] = Affinity chromatography on fucose-agarose column; format: binding
Protocol: Purified Mono-F2 (SEQ ID NO: 4) was analyzed on a 1 mL fucose-agarose column (Sigma-Aldrich, Stockholm, Sweden). The column was equilibrated with 20mL PBS. Mono-F2 (SEQ ID NO: 4) was added and the column was incubated for 20 minutes at 4° C. with gentle rocking. After incubation the column was washed with PBS until the absorbance at 280 nm had reached zero. Elution was performed with 4 mL of 0.15 M L-fucose in PBS, 4 mL of 1 M L-fucose in PBS, and lastly with glycine buffer pH 2.5. Fractions (1 mL) were collected with monitoring of absorbance at 280 nm. The fractions were further analysed by SDS-PAGE.

| Molecule | ELISA binding to non-fucosylated oligosaccharide LNT [2] | ELISA binding specificity towards fucosylated oligosaccharides [2] | minimum lectin concentration that gave hemagglutination [3] [µg/mL] | minimum lectin concentration that gave hemagglutination (molar) [3] [µM] | other results |
| --- | --- | --- | --- | --- | --- |
| CC(=O)N[C@H]1[C@H](O[C@H]2[C@H](O)[C@@H](NC(C)=O)C(O)O[C@@H]2CO)O[C@H](CO)[C@@H](O[C@@H]2O[C@H](CO)[C@@H](O)[C@H](O)[C@H]2NC(C)=O)[C@@H]1O (stereo partly drawn) [chitotriose, N,N′, N″-triacetylchitotriose] | – | – | – | – | binding affinity [1]: millimolar range |
| B1 | only low background binding | bound to all fucosylated oligosaccharides | 2.5 | ~0.071 | – |
| B2 | only low background binding | binding only non-sialylated oligosaccharide structures with α1-2 or α1-4 linked fucose | > 200 | > 14 | retention of non-fucosylated LNT on immobilized Mono-F2 column ([4]; LNT (non fucosylated) control): not bound to the column; retention of fucosylated oligosaccharides LNF I, LNF II and LNF III on immobilized Mono-F2 column ([4]; increasing retention times LNF I, LNF II, LNF III, UV 210 nm): retarded on the column; elution from fucose-agarose column with 0.15 M L-fucose ([5]; 4 mL of 0.15 M L-fucose in PBS): could not be eluted; elution from fucose-agarose column with 1 M L-fucose ([5]; 4 mL of 1 M L-fucose in PBS): Very little was eluted; binding to immobilized fucose (conclusion; low-pH buffer needed for full elution) ([5]; glycine buffer pH 2.5 needed for full elution): high affinity binding to fucose |
| B3 | – | – | – | – | ELISA binding compared with non-treated Mono-F2 ([2]; LNnF I-, LNF II- and LNF III-BSA conjugates, His-tag removed with thrombin (FIG. 8)): identical binding |
